Assay results taken from publication PMC9603474, “Genome-Wide Identification of DOF Gene Family and the Mechanism Dissection of SbDof21 Regulating Starch Biosynthesis in Sorghum”.

Biological target: T1, SbDOF21 (Sorghum bicolor cv. BTx623, UniProt C5Y2M8 1-340)
T1 sequence: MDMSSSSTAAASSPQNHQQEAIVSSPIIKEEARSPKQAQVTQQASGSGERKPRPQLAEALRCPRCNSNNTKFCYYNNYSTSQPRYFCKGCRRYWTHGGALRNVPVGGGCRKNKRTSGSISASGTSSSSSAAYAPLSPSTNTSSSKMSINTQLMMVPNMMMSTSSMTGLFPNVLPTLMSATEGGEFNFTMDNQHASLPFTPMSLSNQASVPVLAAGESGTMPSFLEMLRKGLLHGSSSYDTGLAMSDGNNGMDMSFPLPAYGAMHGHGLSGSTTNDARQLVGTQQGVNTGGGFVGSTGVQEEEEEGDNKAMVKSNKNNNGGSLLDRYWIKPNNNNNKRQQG
Assay: EMSA; 20-fold unlabeled probe partly reduced the shift; Chemiluminescent EMSA Kit (Beyotime) per instructions; buffer, salt, pH and temperature not stated
Conditions: protein: recombinant; tags: His (pET32a, N-terminal vector fusion); blunt

B1: 4x P-Box (dsDNA)
DNA 1: TGTAAAGTGTAAAGTGTAAAGTGTAAAG
DNA 2: CTTTACACTTTACACTTTACACTTTACA
B1: binds.
